For 72 sequences, protein stability index results are on record in the supplement of paper PMC10567573.

This data set can be described thus: protein stability index of a GFP-peptide fusion (GPS, HEK-293T) (PSI 1-6); higher = more stable.
The mark [1] stands for this setting: treatment: DMSO, c terminus: a fixed tail appended.
The mark [2] stands for this setting: treatment: MLN4924 1 uM, 8 h, c terminus: a fixed tail appended.

± gives the standard deviation.
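Further: 24-mer peptide tiles fused after GFP, lentivirally expressed, FACS-sorted into six equal bins by GFP/DsRed ratio, decoded by Illumina sequencing, PSI is the read-weighted mean bin number.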

For the sequence IVRFSGQSRGVPAVSESYSAPGAC [FBXO34], the protein stability index was found to be 3.15 ± 0.34 under setting [1] and 3.36 ± 0.38 under setting [2].

Turning to IYHLDGQETPYLVKLPLPAERVTL [DVL3], the protein stability index is, setting by setting: under setting [1], 2.28 ± 0.24; under setting [2], 2.34 ± 0.26.

For IYQYVQNSMAPHPARDYVVLRTWR [DLC1], the protein stability index reads like this: under setting [1], 1.93 ± 0.23; under setting [2], 2.03 ± 0.37.

Consider KAGIEQEGYWLPGDEISIKKKNTN [ZMYND11], for which the protein stability index stood at 4.5 ± 0.3 under setting [1] and 4.62 ± 0.35 under setting [2].

KALYETELADARRALDDTARERAK [LMNB1] came in with a protein stability index under setting [1] of 5.191 ± 0.038 and a protein stability index under setting [2] of 5.22 ± 0.26.

For KAVANMQGEMDRKCKQVKEKCKEE [ZMYND11], the protein stability index is 5.14 ± 0.31 under setting [1] and 5.31 ± 0.3 under setting [2].

Sequence KAVMKTSVLLSWEIPENYNSAMPF [PTPRD] came in with a protein stability index under setting [1] of 2.26 ± 0.67 and a protein stability index under setting [2] of 2.26 ± 0.43.

KEDGEPSWREAKVSWFGSPTTSFL [PWWP2B]: the protein stability index is, setting by setting: under setting [1], 2.95 ± 0.082; under setting [2], 3.17 ± 0.55.

Regarding KEEREDTPIQLQELLALETALGGQ [TCAP], the protein stability index is 5.17 ± 0.24 under setting [1] and 5.04 ± 0.14 under setting [2].

For KESLCAKEEKCQGKGDDSETDKNN [KCNA4], the protein stability index by setting is: under setting [1], 5.62 ± 0.16; under setting [2], 5.42 ± 0.1.

In the case of KESNANPIFMRKDTKMSFQWRIRN [DPCD], the protein stability index was determined as 2.83 ± 0.15 under setting [1] and 3.01 ± 0.24 under setting [2].

Regarding KFSNIVDKFVIVDCRYPYEYEGGH [CDC25B], the protein stability index came to 2.47 ± 0.16 under setting [1] and 2.25 ± 0.62 under setting [2].

For the sequence KGDSTIRELKAKLSGVEEELQRTK [SASS6], the protein stability index by setting is: under setting [1], 4.86 ± 0.32; under setting [2], 4.58 ± 0.21.

As for KGNTALHDCAESGSLDIMKMLLMY [FEM1C], the protein stability index came to 1.97 ± 0.22 under setting [1] and 1.96 ± 0.34 under setting [2].

For the sequence KGYLFHTVAGKHQDLKYISPEIMA [CDC25A], the protein stability index reads like this: under setting [1], 2.32 ± 0.34; under setting [2], 2.43 ± 0.23.

On to KIEIQTLTGLFKGDKCHSLVGKPK [CASP6], for which the protein stability index runs as follows: under setting [1], 3.01 ± 0.12; under setting [2], 3.15 ± 0.42.

KIIAVGVIDILPNCVSSVYLYYDP [ATE1]: the protein stability index reads like this: under setting [1], 2.62 ± 0.42; under setting [2], 3.19 ± 0.43.

KINAWDLYYYMTQTEELKYSIDQE [NLN]: the protein stability index is, setting by setting: under setting [1], 2.34 ± 0.3; under setting [2], 2.19 ± 0.35.

On to KKIVHYTCFDQRKRANAAFLIGAY [CDC14A], for which the protein stability index stood at 2.37 ± 0.31 under setting [1] and 2.07 ± 0.83 under setting [2].

Take KKPLAGSVDEQNALREVYAHAVLG [WEE1]: the protein stability index under setting [1] came out at 3.43 ± 0.18 and the protein stability index under setting [2] was found to be 3.54 ± 0.52.

With KKVHKGTVPKNDADDESETPEELE [GLT8D2], the protein stability index turned out to be 5.49 ± 0.27 under setting [1] and 5.65 ± 0.093 under setting [2].

On to KLKNLRRKQRRRERWLQKQGKYSG [RNF180], for which the protein stability index under setting [1] is 3.83 ± 0.33 and the protein stability index under setting [2] is 3.93 ± 0.4.

Take KLMKEILDKKVEKVTISNRLVSSP [HSP90AB1]: the protein stability index was found to be 2.81 ± 0.25 under setting [1] and 2.84 ± 0.42 under setting [2].

Take KLQDLIKDVLRYGEEQLKTHKKCK [FCHO1]: the protein stability index was 2.42 ± 0.35 under setting [1] and 2.22 ± 0.29 under setting [2].

For the sequence KNLFRLEMDMVVFRPEMKKHSWCL [N4BP2L1], the protein stability index was 2.48 ± 0.48 under setting [1] and 2.4 ± 0.45 under setting [2].

The sequence KPYKCQQCDKRFRWSSDLNKHLTT [ZNF75A] displayed a protein stability index under setting [1] of 2.18 ± 0.14 and a protein stability index under setting [2] of 2.37 ± 0.17.

On to KQKGSEENLDEAREQKEKSPPDQP [ADD1], for which the protein stability index was 5.68 ± 0.26 under setting [1] and 5.78 ± 0.15 under setting [2].

The sequence KQLIYRVRRTDDTPVVLVGNKSDL [RIT1] displayed a protein stability index under setting [1] of 3.06 ± 0.26 and a protein stability index under setting [2] of 3.23 ± 0.23.

With KRAPGEETEKEEEEEDREEEDENG [NEUROD6], the protein stability index runs as follows: under setting [1], 5.6 ± 0.34; under setting [2], 5.69 ± 0.43.

KREACHCEEVKMTVASEAKIQLSD [FAN1]: the protein stability index under setting [1] came to 4.76 ± 0.19 and the protein stability index under setting [2] turned out to be 5 ± 0.18.

On to KRRRKSCQACRFMKCLKVGMLKEG [ESRRG], for which the protein stability index was 2.67 ± 0.2 under setting [1] and 2.78 ± 0.25 under setting [2].

Turning to KSMKPYNYCSAYESFYESTSPECA [NEUROD6], the protein stability index came to 3.15 ± 0.17 under setting [1] and 3.23 ± 0.35 under setting [2].

On to KTSLWEEENALWEEERAFWMENNG [CCDC70], for which the protein stability index reads like this: under setting [1], 4 ± 0.12; under setting [2], 3.94 ± 0.19.

Sequence KVALEPQLWELGKVLRKAGLSAGY [LPCAT4] registered a protein stability index under setting [1] of 2.27 ± 0.26 and a protein stability index under setting [2] of 2.21 ± 0.36.

As for KVEQNSRPVSCSGRDALLDQIRQG [WASL], the protein stability index is, setting by setting: under setting [1], 4 ± 0.16; under setting [2], 3.96 ± 0.081.

With KVHRARKTMPKSVVGLHAASKDPR [EHMT1], the protein stability index turned out to be 4.1 ± 0.16 under setting [1] and 4.08 ± 0.31 under setting [2].

As to KVTISNRLVSSPCCIVTSTYGWTA [HSP90AB1], the protein stability index under setting [1] stood at 2.84 ± 0.9 and the protein stability index under setting [2] came out at 2.51 ± 0.37.

With KWDGKSTTIKRKREDDKLVVECVM [FABP4], the protein stability index by setting is: under setting [1], 2.82 ± 0.3; under setting [2], 2.83 ± 0.23.

For KWMLGAEDLTPEDDMPIGRNVLEL [PTPRD], the protein stability index runs as follows: under setting [1], 3.9 ± 0.12; under setting [2], 3.92 ± 0.44.

Consider KWNTQTKARSYSYPHCTGISQQDP [ZC2HC1C], for which the protein stability index runs as follows: under setting [1], 3.33 ± 0.34; under setting [2], 3.63 ± 0.38.

On to KYPPDRECIYIIEAAPRQCIELYF [NETO1], for which the protein stability index is, setting by setting: under setting [1], 3.13 ± 0.77; under setting [2], 2.7 ± 1.3.

Consider LACLHVACVVQQKDARQWFAELSV [CCNC], for which the protein stability index came out at 3.22 ± 0.61 under setting [1] and 3.28 ± 0.45 under setting [2].

Regarding LAEIRCDLERQNQEYQVLLDVRAR [KRT34], the protein stability index runs as follows: under setting [1], 3.57 ± 0.17; under setting [2], 3.59 ± 0.13.

As to LAIDAIHQLGFIHRDIKPDNLLLD [STK38L], the protein stability index reads like this: under setting [1], 2.23 ± 0.35; under setting [2], 2.04 ± 0.31.

In the case of LAMKIKVGSDDLERIEARLATLEG [PSD2], the protein stability index runs as follows: under setting [1], 2.79 ± 0.42; under setting [2], 2.85 ± 0.49.

On to LANLSRTQLLHLGLTQGLIERLK [KLHDC10], for which the protein stability index was determined as 2.38 ± 0.53 (treatment: DMSO, c terminus: native) and 2.35 ± 0.18 (treatment: MLN4924 1 uM, 8 h, c terminus: native).

Take LAREGVAAFYKGYVPNMLGIIPYA [SLC25A25]: the protein stability index worked out at 2.42 ± 0.49 under setting [1] and 2.38 ± 0.27 under setting [2].

On to LARGIHVAGILSLLLGTAYSFYLF [POMT2], for which the protein stability index was determined as 2.6 ± 0.62 under setting [1] and 2.65 ± 0.47 under setting [2].

For LASITETIQVHRRYWRSLRVMKVE [HDAC6], the protein stability index by setting is: under setting [1], 2.42 ± 0.3; under setting [2], 2.31 ± 0.16.

With LASRNPCPWHYLHLSGSHNTLAPT [RSPH3], the protein stability index under setting [1] was 2.41 ± 0.14 and the protein stability index under setting [2] stood at 2.45 ± 0.16.

LCDVTLMPGDTDDAFPVHRVMMAS [KLHL13] gave a protein stability index under setting [1] of 3.03 ± 0.34 and a protein stability index under setting [2] of 3.2 ± 0.19.

Regarding LCNLGKERFLELAPDFVGDILWEH [ETS2], the protein stability index under setting [1] was determined as 2.46 ± 0.26 and the protein stability index under setting [2] turned out to be 2.28 ± 0.61.

Take LCVNYFFYGETVADYFATFVQREE [CDS1]: the protein stability index is 3.4 ± 0.68 under setting [1] and 2.61 ± 0.99 under setting [2].

For LDQLRFPNGVQLSPAEDFVLVAET [APMAP], the protein stability index by setting is: under setting [1], 3.09 ± 0.23; under setting [2], 3.27 ± 0.23.

Consider LDSSLASLVGNLGISGTTTKKGDL [SNAP91], for which the protein stability index reads like this: under setting [1], 4.76 ± 0.24; under setting [2], 4.73 ± 0.19.

As for LDTGTNYDYVREFKRSTGTWHHTK [GAN], the protein stability index stood at 3.34 ± 0.11 under setting [1] and 3.42 ± 0.25 under setting [2].

Turning to LEAELLQIEERHQEKKRKFLESTD [SMARCE1], the protein stability index runs as follows: under setting [1], 4.89 ± 0.69; under setting [2], 5.04 ± 0.24.

Consider LEEALYEYQPLQIETYGPHVPELE [MNAT1], for which the protein stability index stood at 3.25 ± 0.6 under setting [1] and 3.65 ± 0.47 under setting [2].

In turn, LEENPYDLDAWSILIREAQNQPID [CSTF3] displayed a protein stability index under setting [1] of 3.74 ± 0.32 and a protein stability index under setting [2] of 3.85 ± 0.31.

For LEEVERAILEMKWKVRAEKEACQR [ZBED2], the protein stability index by setting is: under setting [1], 3.87 ± 0.18; under setting [2], 3.76 ± 0.21.

In the case of LEGEDAHLSSQQASGQSYSSREVF [KRT16], the protein stability index worked out at 5.04 ± 0.15 under setting [1] and 5.02 ± 0.1 under setting [2].

Take LELDDNLDTERPVQKRARSGPQPR [TRIB3]: the protein stability index amounted to 4.9 ± 0.38 under setting [1] and 5.11 ± 0.18 under setting [2].

Consider LELLGATYVDKKRDLLGALKHWRR [FEM1A], for which the protein stability index turned out to be 2.48 ± 0.11 under setting [1] and 2.62 ± 0.3 under setting [2].

For LELSCDKFPPEEELQREWLGNREA [CPN1], the protein stability index came out at 4.95 ± 0.25 under setting [1] and 5.11 ± 0.16 under setting [2].

Turning to LERQLQAEFIESGQYRANEGTSSI [TAF7L], the protein stability index turned out to be 4.7 ± 0.2 under setting [1] and 4.66 ± 0.12 under setting [2].

LESPIDPQPLSFKEPPLLLGVLHP [APMAP]: the protein stability index came to 3.43 ± 0.31 under setting [1] and 3.69 ± 0.24 under setting [2].

In the case of LEVKIHDWYQKQTPTSPECDYSQY [KRT15], the protein stability index is, setting by setting: under setting [1], 2.81 ± 0.3; under setting [2], 2.94 ± 0.25.

LGDPPPLLTLPRPPLSGALASITE [HDAC6]: the protein stability index under setting [1] amounted to 4.33 ± 0.38 and the protein stability index under setting [2] came to 4.41 ± 0.32.

Regarding LGRMGKHEQALFIYVHILKDTRMA [VPS39], the protein stability index runs as follows: under setting [1], 2.89 ± 0.71; under setting [2], 2.98 ± 0.78.

For LHAQLRDLTSSSSDELSWIIELLE [ELF3], the protein stability index under setting [1] worked out at 2.83 ± 0.22 and the protein stability index under setting [2] was 2.99 ± 0.39.

On to LHDRGAQVIHPQEFRRWRDTGVAF [DNAAF3], for which the protein stability index is, setting by setting: under setting [1], 2.83 ± 0.2; under setting [2], 2.99 ± 0.38.

As for LHRLFREKSLDQLKSISAEEILTL [PHTF1], the protein stability index by setting is: under setting [1], 2.11 ± 0.45; under setting [2], 2.25 ± 0.47.
